According to US20240409960A1, “METHOD FOR CONTROLLING PROTEIN FUNCTION” (The University of Tokyo, priority 2021, published 2024):

Columns and labels:
Assay type in all cases: cell-based, human
[1] = tested on: StopFluc luciferase reporter gene in HEK293FT cells; experiment: luciferase-based HDR (Homology-directed repair) assay of Cas9 endonuclease activity
Excerpt: For constructing a luciferase reporter for detecting Cas9 endonuclease activity, the sequence encoding firefly luciferase (Fluc) was amplified from pGL4.31 vector (Promega). The firefly luciferase with an in-flamed stop codon (StopFluc) was produced by an overlapping PCR extension method. The primer (5′-[…]-3′: SEQ ID No: 40) was used for PCR. The Stop-Fluc construct was inserted into the HindII-XhoI site of pcDNA 3.1/V 5-HisA having the CMV promoter. A luciferase donor vector was constructed by inserting the reverse firefly luciferase sequence into the XhoI and HindIII site of the bacterial expression pCold-I vector (Clontech), and was used as donor DNA.
HEK293T cells (American Type Culture Collection: ATCC) were cultured at 37° C. under 5% CO2 in Dulbecco's Modified Eagle Medium (DMEM: Thermo Fisher Scientific) supplemented with 10% fetal bovine serum (FBS: Thermo Fisher Scientific), 100 units/ml of penicillin and 100 μg/ml of streptomycin (Thermo Fisher Scientific) and 2 mM GlutaMAX (Thermo Fisher Scientific).
For luciferase assay, HEK 293 cells were plated at 25,000 cells per well on a 96-well flat clear-bottom microplate (Greiner Bio-One), and were then cultured for 24 hours at 37° C. in 5% CO2. The cells were transfected with cDNAs encoding destabilized Cas9 or an empty vector (negative control) along with the luciferase reporter (StopFluc), donor DNA (Fluc) and Cas9 encoding gRNA, using Lipofectamine 3000 (Thermo Fisher Scientific) at 37° C. The total amount of DNA was 50 ng per well. The transfection ratio of the destabilized Cas9, the luciferase reporter, the donor DNA, and the gRNA was set to be equal (1:1:1:1). […] Bioluminescence measurement was performed for 1 second per well at room temperature using a Centro XS^3 LB 960 plate-reading luminometer (Berthold Technologies).
Full-length Cas9 was used as a positive control. […] Bioluminescence measurement was performed for 1 second per well at room temperature using a Centro XS^3 LB 960 plate-reading luminometer (Berthold Technologies).

[2] = tested on: FRT sites (Floxed (FRT)-STOP Fluc reporter) in HEK293 cells; experiment: luciferase assay of Flp-FRT DNA recombination in HEK293 cells; settings: 5 ng plasmid, 24 or 48 hours
Method: (§1) For constructing the luciferase reporters detecting for the activities of Flp-FRT recombinase, VCre-Vlox recombinase and Dre-rox recombinase, the FRT site ([…]: SEQ ID No: 37), the Vlox site ([…]: SEQ ID No: 38), the rox site ([…]: SEQ ID No: 39), were inserted into HindIII and KpnI sites and ClaI and EcoRI sites in the pcDNA3.1 (+) vector of the luciferase reporter (of loxP-stop-loxP-Fluc).
(§2) For luciferase assay, HEK 293 cells were plated at 25,000 cells per well on a 96-well flat white microplate (Thermo Fisher Scientific), and were then cultured for 24 hours at 37° C. in 5% CO2. The cells were transfected with cDNAs encoding destabilized Cre along with the luciferase reporter (loxP-stop-loxP Fluc), using X-tremeGENE9 reagent (Merck Millipore) at 37° C. The total amount of DNA was 50 ng per well. Twenty-four hours after the transfection, TMP or DMSO was added into the cells, and the cells were further cultured for 24 hours or 48 hours. Just before the luciferase assay, the medium was replaced with Hanks' balanced salt solution (HBSS) (Thermo Fisher Scientific) containing 0.2 mM D-luciferin potassium salt. Bioluminescence measurement was performed for 1 second per well at room temperature using a Centro XS^3 LB 960 plate-reading luminometer (Berthold Technologies).

[3] = tested on: Vlox sites (Floxed (Vlox)-STOP Fluc reporter) in HEK293 cells; experiment: luciferase assay of VCre-Vlox DNA recombination in HEK293 cells; settings: 5 ng plasmid, TMP 10 nM or 500 nM or DMSO, 24 or 48 hours
Method: as §1, §2

Molecule: SPEED-Cas9: split spCas9 (a.a. 2-713 and 714-1,368) tagged with NZ/CZ leucine zippers and DD sequences, joined via P2A; SEQ ID No: 28
- background endonuclease activity in the absence of TMP ([1]; 12.5 ng plasmid, DMSO, 48 hours): extremely low background level of endonuclease activity, comparable to that of the negative control group using the pcDNA3.1 empty vector plasmid
- TMP-dependent endonuclease activity ([1]; 12.5 ng plasmid, TMP 500 nM, 48 hours): extremely high TMP-dependent endonuclease activity
- TMP-dependent endonuclease activity compared with full-length Cas9 ([1]; TMP 500 nM (FIGS. 9d and e)): comparable to that of full-length Cas9

B1: DD-Flp: Flp tagged with single DD; SEQ ID No: 15 (protein, listed as Saccharomyces cerevisiae)
chain: MVSKYPYDVPDYARSGGSGGMISLIAALAVDYVIGMENAMPWNLPADLAWFKRNTLNKPVIMGRHTWESIGRPLPGRKNIILSSQPSTDDRVTWVKSVDEAIAACGDVPEIMVIGGGRVIEQFLPKAQKLYLTHIDAEVEGDTHFPDYEPDDWESVFSEFHDADAQNSHSYCFEILERRGGSGGSGGKLVPKKKRKVGGSQFDILCKTPPKVLVRQFVERFERPSGEKIASCAAELTYLCWMITHNGTAIKRATFMSYNTIISNSLSFDIVNKSLQFKYKTQKATILEASLKKLIPAWEFTIIPYNGQKHQSDITDIVSSLQLQFESSEEADKGNSHSKKMLKALLSEGESIWEITEKILNSFEYTSRFTKTKTLYQFLFLATFINCGRFSDIKNVDPKSFKLVQNKYLGVIIQCLVTETKTSVSRHIYFFSARGRIDPLVYLDEFLRNSEPVLKRVNRTGNSSSNKQEYQLLKDNLVRSYNKALKKNAPYPIFAIKNGPKSHIGRHLMTSFLSMKGLTELTNVVGNWSDKRASAVARTTYTHQITAIPDHYFALVSRYYAYDPISKEMIALKDETNPIEEWQHIEQLKGSAEGSIRYPAWNGIISQEVLDYLSSYINRRI
modifications: MISC_FEATURE - HAtag; DOMAIN 21..179 Degradation Domain; MISC_FEATURE - Flp
- background DNA recombination activity in the absence of TMP [2]: high background DNA recombination activity comparable to full-length Flp

B2: SPEED-Flp: split Flp (a.a. 2-374 and 375-423), single DD on the N-terminal and C-terminal sides; SEQ ID No: 16 (protein, listed as Saccharomyces cerevisiae)
chain: MVSKYPYDVPDYARSGGSGGMISLIAALAVDYVIGMENAMPWNLPADLAWFKRNTLNKPVIMGRHTWESIGRPLPGRKNIILSSQPSTDDRVTWVKSVDEAIAACGDVPEIMVIGGGRVIEQFLPKAQKLYLTHIDAEVEGDTHFPDYEPDDWESVFSEFHDADAQNSHSYCFEILERRGGSGGSGGKLVPKKKRKVGGSQFDILCKTPPKVLVRQFVERFERPSGEKIASCAAELTYLCWMITHNGTAIKRATFMSYNTIISNSLSFDIVNKSLQFKYKTQKATILEASLKKLIPAWEFTIIPYNGQKHQSDITDIVSSLQLQFESSEEADKGNSHSKKMLKALLSEGESIWEITEKILNSFEYTSRFTKTKTLYQFLFLATFINCGRFSDIKNVDPKSFKLVQNKYLGVIIQCLVTETKTSVSRHIYFFSARGRIDPLVYLDEFLRNSEPVLKRVNRTGNSSSNKQEYQLLKDNLVRSYNKALKKNAPYPIFAIKNGPKSHIGRHLMTSFLSMKGLTELTNVVGNWSDKRASAVARTTYTHQITAIPDHYFALVSRYYAYDPISKEMIALGSGSGATNFSLLKQAGDVEENPGPLEKDETNPIEEWQHIEQLKGSAEGSIRYPAWNGIISQEVLDYLSSYINRRIGGSGGSGGMISLIAALAVDYVIGMENAMPWNLPADLAWFKRNTLNKPVIMGRHTWESIGRPLPGRKNIILSSQPSTDDRVTWVKSVDEAIAACGDVPEIMVIGGGRVIEQFLPKAQKLYLTHIDAEVEGDTHFPDYEPDDWESVFSEFHDADAQNSHSYCFEILERR
modifications: MISC_FEATURE - HAtag; DOMAIN 21..179 Degradation Domain; SIGNAL 190..197 Nuclear Localization Signal; MISC_FEATURE - N-terminal side of Flp; MISC_FEATURE - P2A; MISC_FEATURE - C-terminal side of Flp; DOMAIN 656..814 Degradation Domain
- background DNA recombination activity in the absence of TMP [2]: extremely low background level of DNA recombination activity comparable to a negative control group using the pcDNA3.1 empty vector plasmid
- TMP-dependent DNA recombination activity ([2]; TMP 10 nM or 500 nM): extremely high TMP-dependent DNA recombination activity

B3: SPEED-VCre: split VCre (a.a. 2-277 and 278-380), single DD on the N-terminal and C-terminal sides; SEQ ID No: 20 (protein, listed as Vibrio parahaemolyticus)
chain: MVSKYPYDVPDYARSGGSGGMISLIAALAVDYVIGMENAMPWNLPADLAWFKRNTLNKPVIMGRHTWESIGRPLPGRKNIILSSQPSTDDRVTWVKSVDEAIAACGDVPEIMVIGGGRVIEQFLPKAQKLYLTHIDAEVEGDTHFPDYEPDDWESVFSEFHDADAQNSHSYCFEILERRGGSGGSGGKLVPKKKRKVGGIENQLSLLGDFSGVRPDDVKTAIQAAQKKGINVAENEQFKAAFEHLLNEFKKREERYSPNTLRRLESAWTCFVDWCLANHRHSLPATPDTVEAFFIERAEELHRNTLSVYRWAISRVHRVAGCPDPCLDIYVEDRLKAIARKKVREGEAVKQASPFNEQHLLKLTSLWYRSDKLLLRRNLALLAVAYESMLRASELANIRVSDMELAGDGTAILTIPITKTNHSGEPDTCILSQDVVSLLMDYTEAGKLDMSSDGFLFVGVSKHNTCIKPKKDKQTGSGSGATNFSLLKQAGDVEENPGPLEGEVLHKPITTKTVEGVFYSAWETLDLGRQGVKPFTAHSARVGAAQDLLKKGYNTLQIQQSGRWSSGAMVARYGRAILARDGAMAHSRVKTRSAPMQWGKDEKDGGSGGSGGMISLIAALAVDYVIGMENAMPWNLPADLAWFKRNTLNKPVIMGRHTWESIGRPLPGRKNIILSSQPSTDDRVTWVKSVDEAIAACGDVPEIMVIGGGRVIEQFLPKAQKLYLTHIDAEVEGDTHFPDYEPDDWESVFSEFHDADAQNSHSYCFEILERR
modifications: HAtag; DOMAIN 21..179 Degradation Domain; SIGNAL 190..197 Nuclear Localization Signal; MISC_FEATURE - N-terminal side of VCre; MISC_FEATURE - P2A; MISC_FEATURE - C-terminal side of VCre; DOMAIN 613..771 Degradation Domain
- background and TMP-dependent DNA recombination activity [3]: results similar to those of SPEED-Cre
